Biological target: calmodulin-Sepharose, P0DP23
Experiment: pull-down
Conditions: remark: other sources report otherwise

Row | Binder | percent reduction of binding with EGTA against Ca2+ [%] | fold more bound with Ca2+ than with EGTA [fold]
1 | purified recombinant human LATS1 (active kinase), O95835 1-1130 (enzyme) MKRSEKPEGYRQMRPKTFPASNYTVSSRQMLQEIRESLRNLSKPSDAAKAEHNMSKMSTEDPRQVRNPPKFGTHHKALQEIRNSLLPFANETNSSRSTSEVNPQMLQDLQAAGFDEDMVIQALQKTNNRSIEAAIEFISKMSYQDPRREQMAAAAARPINASMKPGNVQQSVNRKQSWKGSKESLVPQRHGPPLGESVAYHSESPNSQTDVGRPLSGSGISAFVQAHPSNGQRVNPPPPPQVRSVTPPPPPRGQTPPPRGTTPPPPSWEPNSQTKRYSGNMEYVISRISPVPPGAWQEGYPPPPLNTSPMNPPNQGQRGISSVPVGRQPIIMQSSSKFNFPSGRPGMQNGTGQTDFMIHQNVVPAGTVNRQPPPPYPLTAANGQSPSALQTGGSAAPSSYTNGSIPQSMMVPNRNSHNMELYNISVPGLQTNWPQSSSAPAQSSPSSGHEIPTWQPNIPVRSNSFNNPLGNRASHSANSQPSATTVTAITPAPIQQPVKSMRVLKPELQTALAPTHPSWIPQPIQTVQPSPFPEGTASNVTVMPPVAEAPNYQGPPPPYPKHLLHQNPSVPPYESISKPSKEDQPSLPKEDESEKSYENVDSGDKEKKQITTSPITVRKNKKDEERRESRIQSYSPQAFKFFMEQHVENVLKSHQQRLHRKKQLENEMMRVGLSQDAQDQMRKMLCQKESNYIRLKRAKMDKSMFVKIKTLGIGAFGEVCLARKVDTKALYATKTLRKKDVLLRNQVAHVKAERDILAEADNEWVVRLYYSFQDKDNLYFVMDYIPGGDMMSLLIRMGIFPESLARFYIAELTCAVESVHKMGFIHRDIKPDNILIDRDGHIKLTDFGLCTGFRWTHDSKYYQSGDHPRQDSMDFSNEWGDPSSCRCGDRLKPLERRAARQHQRCLAHSLVGTPNYIAPEVLLRTGYTQLCDWWSVGVILFEMLVGQPPFLAQTPLETQMKVINWQTSLHIPPQAKLSPEASDLIIKLCRGPEDRLGKNGADEIKAHPFFKTIDFSSDLRQQSASYIPKITHPTDTSNFDPVDPDKLWSDDNEEENVNDTLNGWYKNGKHPEHAFYEFTFRRFFDDNGYPYNYPKPIEYEYINSQGSEQQSDEDDQNTGSEIKNRDLVYV | 70.9 | 
2 | large tumor suppressor 1 kinase (endogenous, HEK293 cells), O95835 1-1130 (enzyme) MKRSEKPEGYRQMRPKTFPASNYTVSSRQMLQEIRESLRNLSKPSDAAKAEHNMSKMSTEDPRQVRNPPKFGTHHKALQEIRNSLLPFANETNSSRSTSEVNPQMLQDLQAAGFDEDMVIQALQKTNNRSIEAAIEFISKMSYQDPRREQMAAAAARPINASMKPGNVQQSVNRKQSWKGSKESLVPQRHGPPLGESVAYHSESPNSQTDVGRPLSGSGISAFVQAHPSNGQRVNPPPPPQVRSVTPPPPPRGQTPPPRGTTPPPPSWEPNSQTKRYSGNMEYVISRISPVPPGAWQEGYPPPPLNTSPMNPPNQGQRGISSVPVGRQPIIMQSSSKFNFPSGRPGMQNGTGQTDFMIHQNVVPAGTVNRQPPPPYPLTAANGQSPSALQTGGSAAPSSYTNGSIPQSMMVPNRNSHNMELYNISVPGLQTNWPQSSSAPAQSSPSSGHEIPTWQPNIPVRSNSFNNPLGNRASHSANSQPSATTVTAITPAPIQQPVKSMRVLKPELQTALAPTHPSWIPQPIQTVQPSPFPEGTASNVTVMPPVAEAPNYQGPPPPYPKHLLHQNPSVPPYESISKPSKEDQPSLPKEDESEKSYENVDSGDKEKKQITTSPITVRKNKKDEERRESRIQSYSPQAFKFFMEQHVENVLKSHQQRLHRKKQLENEMMRVGLSQDAQDQMRKMLCQKESNYIRLKRAKMDKSMFVKIKTLGIGAFGEVCLARKVDTKALYATKTLRKKDVLLRNQVAHVKAERDILAEADNEWVVRLYYSFQDKDNLYFVMDYIPGGDMMSLLIRMGIFPESLARFYIAELTCAVESVHKMGFIHRDIKPDNILIDRDGHIKLTDFGLCTGFRWTHDSKYYQSGDHPRQDSMDFSNEWGDPSSCRCGDRLKPLERRAARQHQRCLAHSLVGTPNYIAPEVLLRTGYTQLCDWWSVGVILFEMLVGQPPFLAQTPLETQMKVINWQTSLHIPPQAKLSPEASDLIIKLCRGPEDRLGKNGADEIKAHPFFKTIDFSSDLRQQSASYIPKITHPTDTSNFDPVDPDKLWSDDNEEENVNDTLNGWYKNGKHPEHAFYEFTFRRFFDDNGYPYNYPKPIEYEYINSQGSEQQSDEDDQNTGSEIKNRDLVYV |  | 11
